{"source": "paper PMC6265486", "about": "(Nucleic Acids Research, 2018)", "molecules": {"B1": {"name": "5'-fluorescein 90-nt oligonucleotide (ssDNA)", "DNA": "TAATGCTATCACTATTCGTAGACTTGACCACACCTTGTCAGCTCACGCTCCAAATGAAAGTATAGCTAAACAGGTTATTGACCATATGCA", "modifications": "fluorescein on 5'-terminal T"}, "B2": {"name": "90-nt oligonucleotide (ssDNA)", "DNA": "B1 DNA"}, "B3": {"name": "D1-F 40-nt ssDNA (ssDNA)", "DNA": "ATGCTAGCTTGGCTGTGACTTTAAACCTGTCGTGCCAGCT", "modifications": "fluorescein on internal T21"}, "B4": {"name": "D1-F/D2 40-bp dsDNA (dsDNA)", "DNA 1": "B3 DNA", "DNA 2": "AGCTGGCACGACAGGTTTAAAGTCACAGCCAAGCTAGCAT", "modifications": "fluorescein on internal T21 of D1"}, "B5": {"name": "human mitochondrial single-stranded DNA binding protein (natural protein, UniProt Q04837 17-148, looked up)", "chain": "ESETTTSLVLERSLNRVHLLGRVGQDPVLRQVEGKNPVTIFSLATNEMWRSGDSEVYQLGDVSQKTTWHRISVFRPGLRDVAYQYVKKGSRIYLEGKIDYGEYMDKNNVRRQATTIIADNIIFLSDQTKEKE"}}, "key": {"[1]": {"biological_target": "T1, human mtSSB (Homo sapiens) (UniProt Q04837)", "T1 sequence": "B5 chain", "test": "AFM", "settings": "Anisotropy: 30 mM HEPES-KOH pH 7.5, 1 mM 2-mercaptoethanol, 5 mM MgCl2, 0.01% NP-40, 50 mM NaCl, 20 nM oligo, 20 C. AFM/DREEM: incubation in 20 mM HEPES pH …"}, "human mtSSB [2]": {"biological_target": "T2, human mtSSB (Homo sapiens, UniProt Q04837 17-148)", "T2 sequence": "B5 chain", "test": "fluorescence anisotropy; 5 mM MgCl2, 50 mM NaCl; tetramers; Hill coefficient 2.00; Anisotropy: 30 mM HEPES-KOH pH 7.5, 1 mM 2-mercaptoethanol, 5 mM MgCl2, 0.01% NP-40, 50 mM NaCl, 20 nM oligo, 20 C. AFM/DREEM: incubation in 20 mM HEPES pH 7.5"}, "E. coli SSB [3]": {"biological_target": "T3, E. coli SSB (Escherichia coli, UniProt P0AGE0 1-178)", "T3 sequence (P0AGE0 whole entry)": "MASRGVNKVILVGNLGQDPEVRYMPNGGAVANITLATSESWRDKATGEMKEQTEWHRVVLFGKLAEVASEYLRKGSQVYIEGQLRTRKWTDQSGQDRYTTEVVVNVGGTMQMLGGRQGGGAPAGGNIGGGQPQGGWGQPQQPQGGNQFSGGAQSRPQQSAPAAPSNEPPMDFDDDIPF", "test": "fluorescence anisotropy; 5 mM MgCl2, 50 mM NaCl; tetramers; Hill coefficient 1.84; Anisotropy: 30 mM HEPES-KOH pH 7.5, 1 mM 2-mercaptoethanol, 5 mM MgCl2, 0.01% NP-40, 50 mM NaCl, 20 nM oligo, 20 C. AFM/DREEM: incubation in 20 mM HEPES pH 7.5"}, "E. coli SSB [4]": {"biological_target": "T3, E. coli SSB", "test": "AFM/DREEM; 100 mM NaCl; 10 mM Mg(OAc)2 in imaging buffer; 35% one strand wrapped, 65% two; Anisotropy: 30 mM HEPES-KOH pH 7.5, 1 mM 2-mercaptoethanol, 5 mM MgCl2, 0.01% NP-40, 50 mM NaCl, 20 nM oligo, 20 C. AFM/DREEM: incubation in 20 mM HEPES pH 7.5"}, "human mtSSB [5]": {"biological_target": "T2, human mtSSB", "test": "AFM/DREEM; 100 mM NaCl; 10 mM Mg(OAc)2 in imaging buffer; 85% one strand wrapped, 15% two; Anisotropy: 30 mM HEPES-KOH pH 7.5, 1 mM 2-mercaptoethanol, 5 mM MgCl2, 0.01% NP-40, 50 mM NaCl, 20 nM oligo, 20 C. AFM/DREEM: incubation in 20 mM HEPES pH 7.5"}, "human mtSSB [6]": {"biological_target": "T2, human mtSSB", "test": "fluorescence anisotropy; 5 mM MgCl2, 50 mM NaCl; tetramers; Anisotropy: 30 mM HEPES-KOH pH 7.5, 1 mM 2-mercaptoethanol, 5 mM MgCl2, 0.01% NP-40, 50 mM NaCl, 20 nM oligo, 20 C. AFM/DREEM: incubation in 20 mM HEPES pH 7.5"}, "human mtSSB [7]": {"biological_target": "T2, human mtSSB", "test": "fluorescence anisotropy; 5 mM MgCl2, 50 mM NaCl; Anisotropy: 30 mM HEPES-KOH pH 7.5, 1 mM 2-mercaptoethanol, 5 mM MgCl2, 0.01% NP-40, 50 mM NaCl, 20 nM oligo, 20 C. AFM/DREEM: incubation in 20 mM HEPES pH 7.5"}, "[8]": {"biological_target": "the molecule itself", "test": "AFM volume measurement; free mtSSB (8.4 nM tetramers) diluted in 20 mM HEPES (pH 7.5), 100 mM NaCl, deposited on freshly cleaved mica, imaged in air (AC mode); AFM volume converted to molecular weight with a calibration curve"}}}
{"molecule": "linear 2030-bp DNA with 37-nt ssDNA gap", "values": [{"measurement": "binding signal (KSP/KNSP (gap vs duplex specificity))", "setting": "[1]", "result": 14500}]}
{"molecule": "B1", "values": [{"measurement": "Kd", "setting": "human mtSSB [2]", "result": "14.7 ± 0.5", "unit": "nM"}, {"measurement": "Kd", "setting": "E. coli SSB [3]", "result": "25.4 ± 1.3", "unit": "nM"}]}
{"molecule": "B2", "values": [{"measurement": "binding result", "setting": "E. coli SSB [4]", "result": "binds"}, {"measurement": "binding result", "setting": "human mtSSB [5]", "result": "binds"}]}
{"molecule": "B3", "values": [{"measurement": "Kd", "setting": "human mtSSB [6]", "result": "1.8 ± 0.9", "unit": "nM"}]}
{"molecule": "B4", "values": [{"measurement": "binding result", "setting": "human mtSSB [7]", "result": "no binding"}]}
{"molecule": "B5", "values": [{"measurement": "stoichiometry N", "setting": "[8]", "result": 4}]}
